The values that follow come from patent publication EP4792886A2, “CNP PRODRUGS” (Ascendis Pharma Growth Disorders A/S, priority 2015, dated 2016).

The subject of one data set is wild-type FVB male mice. The experiment in a line: Growth study in FVB mice after 5 weeks treatment, daily subcutaneous bolus injection or continuous subcutaneous infusion. Type of data set: in vivo. The settings on record: 50 nmol/kg/d, d 35. How it is done: This study was performed in order to test the effect of daily subcutaneous bolus injection vs. continuous subcutaneous infusion of CNP-38 on animal growth. 21- to 22-days-old wild-type FVB male mice (n = 9/group) were given 50 nmol/kg/d CNP-38 or vehicle (30 mM acetate pH 4 containing 5 % sucrose and 1 % benzylic alcohol) either by daily subcutaneous bolus injection or by continuous subcutaneous infusion in the scapular region over 35 days. Continuous infusion was applied by Alzet osmotic pumps model 1002 for week 1-2, followed by model 1004 for week 3-5. CNP-38 concentrations in the pumps were adjusted for the mean animal weight at study day 7 (pump model 1002) or study day 25 (pump model 1004). Growth was determined at d 35 by total body length measurement and X-ray measurements of the right femur and tibia.

A further data set has as its target recombinant human NEP (Homo sapiens, UniProt P08473). The settings on record: pH 7.4. The source says:
Samples were taken at different time intervals. […] The resulting reaction products were assigned using HPLC-MS.

In data set [1] the target is T1, natriuretic-peptide receptor B (NPR-B) expressed endogenously on NIH-3T3 cells (Murine Embryo Fibroblast cell … (murine, UniProt Q6VVW5 17-1047)).
T1 sequence (looked up): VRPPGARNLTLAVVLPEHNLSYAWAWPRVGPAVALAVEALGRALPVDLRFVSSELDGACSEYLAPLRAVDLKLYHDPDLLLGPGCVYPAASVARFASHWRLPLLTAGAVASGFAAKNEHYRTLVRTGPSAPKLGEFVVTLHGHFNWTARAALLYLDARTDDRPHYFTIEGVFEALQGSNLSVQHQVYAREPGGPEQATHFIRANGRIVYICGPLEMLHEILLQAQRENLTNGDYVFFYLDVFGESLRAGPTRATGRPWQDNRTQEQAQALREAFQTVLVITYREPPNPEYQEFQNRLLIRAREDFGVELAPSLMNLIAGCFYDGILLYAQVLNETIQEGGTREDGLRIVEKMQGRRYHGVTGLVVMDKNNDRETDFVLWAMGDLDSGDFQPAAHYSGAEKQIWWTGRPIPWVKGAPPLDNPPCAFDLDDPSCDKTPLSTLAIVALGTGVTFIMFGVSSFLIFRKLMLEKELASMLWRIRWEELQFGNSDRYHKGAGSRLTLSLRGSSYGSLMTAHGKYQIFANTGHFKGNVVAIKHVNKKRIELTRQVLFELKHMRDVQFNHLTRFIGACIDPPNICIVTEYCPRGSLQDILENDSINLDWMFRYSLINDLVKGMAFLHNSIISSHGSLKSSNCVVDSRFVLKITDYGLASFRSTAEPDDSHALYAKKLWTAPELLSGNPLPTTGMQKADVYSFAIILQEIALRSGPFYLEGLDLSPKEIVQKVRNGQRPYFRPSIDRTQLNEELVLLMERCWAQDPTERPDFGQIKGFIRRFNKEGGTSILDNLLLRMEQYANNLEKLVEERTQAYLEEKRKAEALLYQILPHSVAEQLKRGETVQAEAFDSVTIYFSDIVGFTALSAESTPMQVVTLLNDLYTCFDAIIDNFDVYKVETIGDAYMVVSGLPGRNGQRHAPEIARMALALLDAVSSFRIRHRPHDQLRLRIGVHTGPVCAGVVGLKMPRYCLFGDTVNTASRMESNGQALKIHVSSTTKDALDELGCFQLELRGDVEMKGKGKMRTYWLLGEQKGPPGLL
The experiment in a line: cell-based or functional assay.

Bridges are numbered along the chain shown (N, C = ends). Where no end group is shown, it is not given here. The star is where a group is joined. Hexanoyl(6-maleimido) = O=C1C=CC(=O)N1CCCCCC(=O)*

recombinant human NEP, sequence (P08473 whole entry): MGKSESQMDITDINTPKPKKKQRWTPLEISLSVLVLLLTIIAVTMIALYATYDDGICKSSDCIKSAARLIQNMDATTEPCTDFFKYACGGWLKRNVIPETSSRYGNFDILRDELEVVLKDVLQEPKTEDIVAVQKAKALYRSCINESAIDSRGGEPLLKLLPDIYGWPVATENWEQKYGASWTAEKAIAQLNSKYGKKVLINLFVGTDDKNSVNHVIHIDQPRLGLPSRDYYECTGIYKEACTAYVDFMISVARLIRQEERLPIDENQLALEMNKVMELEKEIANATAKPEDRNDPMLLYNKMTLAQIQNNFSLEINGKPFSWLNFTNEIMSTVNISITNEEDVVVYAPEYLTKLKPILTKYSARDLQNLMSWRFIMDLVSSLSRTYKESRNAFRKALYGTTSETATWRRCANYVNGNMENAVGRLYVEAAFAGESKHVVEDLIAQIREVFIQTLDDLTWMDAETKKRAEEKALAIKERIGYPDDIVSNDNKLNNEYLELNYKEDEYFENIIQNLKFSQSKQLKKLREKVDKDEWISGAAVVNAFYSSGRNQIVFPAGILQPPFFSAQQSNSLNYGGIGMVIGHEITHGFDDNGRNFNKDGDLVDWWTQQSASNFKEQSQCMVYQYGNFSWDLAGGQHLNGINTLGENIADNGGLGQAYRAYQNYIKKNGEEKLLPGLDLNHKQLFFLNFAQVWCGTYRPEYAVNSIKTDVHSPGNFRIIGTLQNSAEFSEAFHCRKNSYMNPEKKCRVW

As for “CNP-38: CNP-38 SEQ ID No:24, LQEHPNARKYKGANKKGLSKGCFGLKLDRIGSMSGLGC, obtained from CASLO ApS (disulfide 22-38)”, the figures for the “total body lenght compared to vehicle treated animals” value with wild-type FVB male mice (continuous subcutaneous infusion) and in the data set with wild-type FVB male mice (daily subcutaneous bolus injection) were 121.7% and 110.2%, respectively. Moreover, in the data set with recombinant human NEP, the “half life norm.” value was determined as 12.10 h.

B1: permanent Lys26 CNP-38 PEG 5 kDa conjugate 19e (peptide)
peptide: LQEHPNARKYKGANKKGLSKGCFGLKLDRIGSMSGLGC
modifications: 5 kDa PEG stably attached at the side chain of Lys26 through a maleimido hexanoyl group; disulfide bridge between Cys22 and Cys38
In the case of B1, the “Residual Activity [%] (cGMP TR-FRET in NIH-3T3 cells, by EC50 against non-PEGylated CNP-38)” value in data set [1] was less than 1%.

On to LQEHPNARKYKGANKKGLSKGCFGLKLDRIGSMSGLGC (disulfide 22-38; not fully specified (residue 26)) [permanent Lys26 CNP-38 PEG4x10 kDa conjugate 12g], for which the “Residual Activity [%] (cGMP TR-FRET in NIH-3T3 cells, by EC50 against non-PEGylated CNP-38)” value in data set [1] is less than 1%.

Take {PEG 5 kDa-Hexanoyl(6-maleimido)}-LQEHPNARKYKGANKKGLSKGCFGLKLDRIGSMSGLGC (disulfide 22-38) [permanent N-terminal CNP-38 PEG 5kDa conjugate 15e]: the “Residual Activity [%] (cGMP TR-FRET in NIH-3T3 cells, by EC50 against non-PEGylated CNP-38)” value in data set [1] was found to be 14%.
